Assays:
[1] = target: T1, human fibulin-3 (human, UniProt Q12805 18-493, limits assumed); assay: BIACORE, antibody immobilised on the chip, purified human fibulin-3 pretreated with 10 mM DTT as analyte (200-600 nM), 1:1 model; first of two runs (upper panel)
T1 construct: Purified human fibulin-3 in Western blot, dot blot and BIACORE (there pretreated with 10 mM DTT to dissociate multimers); The same entry is used for fibulin-3 secreted by transfected CNS1 cells and for native fibulin-3 in human tissue sections; also called Fib3; EFEMP1 gene product
T1 sequence (looked up): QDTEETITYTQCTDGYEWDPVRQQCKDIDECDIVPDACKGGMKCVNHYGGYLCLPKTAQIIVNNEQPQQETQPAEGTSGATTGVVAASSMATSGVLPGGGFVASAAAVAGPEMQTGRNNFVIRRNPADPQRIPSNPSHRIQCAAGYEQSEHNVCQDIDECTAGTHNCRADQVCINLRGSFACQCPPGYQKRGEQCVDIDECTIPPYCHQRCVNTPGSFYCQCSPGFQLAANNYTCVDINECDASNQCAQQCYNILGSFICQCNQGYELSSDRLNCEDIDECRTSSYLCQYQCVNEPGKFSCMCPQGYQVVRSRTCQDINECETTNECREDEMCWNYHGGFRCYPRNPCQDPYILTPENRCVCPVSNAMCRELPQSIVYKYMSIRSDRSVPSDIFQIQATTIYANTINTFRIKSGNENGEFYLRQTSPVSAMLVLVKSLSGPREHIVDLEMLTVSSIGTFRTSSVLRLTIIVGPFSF
Experimental: (§1) Experiments were performed in duplicate and fit to a 1:1 binding interaction model.

[2] = target: T1, human fibulin-3; assay: SPR (BIACORE), antibody immobilized on the chip, purified human fibulin-3 pretreated with 10 mM DTT, duplicate, 1:1 model
Experimental: as §1

[3] = target: T1, human fibulin-3; assay: BIACORE, antibody immobilised on the chip, purified human fibulin-3 pretreated with 10 mM DTT as analyte (200-600 nM), 1:1 model; second of two runs (lower panel)
Experimental: as §1

[4] = target: T1, human fibulin-3; assay: method not stated there (summary of the tests)
Experimental: as §1

B1: mAb428.2.3C11.H11.G3 (antibody, IgG1, V domains shown)
VH: QIQLVQSGPELKKPGETVKISCKASGYSFTTYGMSWVKQAPGKGLKWMGWINTYSGVPTYADDFKGRFAFFLETSASTAYLQINNLKNEDTATYFCARWVDYWGQGTTLTVSS
VL: DIKMTQSPSSMYASLGERVTITCKASQDIKSYLSWHQQKPWKSPKTLIYYATSLADGVPSRFSGSGSGQDYSLTISSLESDDTATYYCLQHGKSPYTFGGGTKLEIK
notes: also called mAb428.3C11; mAb428.3C11.H11.G3
[1]
  Kd: 6.97 nM
[2]
  Kd: ~4.5 nM
[3]
  Kd: 2.03 nM
[4]
  Kd: 5 nM

Reference: patent publication US20190177426A1 (BRIGHAM AND WOMEN S HOSPITAL, published 2019)
